Target: T1, BBI (Bcl9 peptide) 351-357 (Homo sapiens, UniProt O00512)
T1 chain: LSQEQLE

B1: β-catenin (protein)
chain: ATQADLMELDMAMEPDRKAAVSHWQQQSYLDSGIHSGATTTAPSLSGKGNPEEEDVDTSQVLYEWEQGFSQSFTQEQVADIDGQYAMTRAQRVRAAMFPETLDEGMQIPSTQFDAAHPTNVQRLAEPSQMLKHAVVNLINYQDDAELATRAIPELTKLLNDEDQVVVNKAAVMVHQLSKKEASRHAIMRSPQMVSAIVRTMQNTNDVETARCTAGTLHNLSHHREGLLAIFKSGGIPALVKMLGSPVDSVLFYAITTLHNLLLHQEGAKMAVRLAGGLQKMVALLNKTNVKFLAITTDCLQILAYGNQESKLIILASGGPQALVNIMRTYTYEKLLWTTSRVLKVLSVCSSNKPAIVEAGGMQALGLHLTDPSQRLVQNCLWTLRNLSDAATKQEGMEGLLGTLVQLLGSDDINVVTCAAGILSNLTCNNYKNKMMVCQVGGIEALVRTVLRAGDREDITEPAICALRHLTSRHQEAEMAQNAVRLHYGLPVVVKLLHPPSHWPLIKATVGLIRNLALCPANHAPLREQGAIPRLVQLLVRAHQDTQRRTSMGGTQQQFVEGVRMEEIVEGCTGALHILARDVHNRIVIRGLNTIPLFVQLLYSPIENIQRVAAGVLCELAQDKEAAEAIEAEGATAPLTELLHSRNEGVATYAAAVLFRMSEDKPQDYKKRLSVELTSSLFRTEPMAWNETADLGLDIGAQGEPLGYRQDDPSYRSFHSGGYGQDALGMDPMMEHEMGGHHPGADYPVDGLPDLGHAQDLMDGLPPGDSNQLAWFDTDL
Kd: ~1000 nM
